Test results published in patent publication US20230065377A1.
Where “and” joins values, the source holds several entries; their conditions need not be identical. Equal values may be shown once. Read-outs that look alike come from different tables or passages of the source.

B1: EEEV-33 (antibody, V domains shown)
VH: QVTLKESGPALVKPTQTLTLTCTFSGFSLSTSGMRVSWIRQPPGKALEWLARIDWDDDKFYSTSLKTRLTISKDTSKNQVVLRMTNMDPVDTATYYCARILPGYCSGGSCYYNYHFDYWGQGTLVTVSS
VL: SYVLTQPPSVSVAPGQTARITCGGNNIGSKSVHWYQQKPGQAPVLVVYHDSDRPSGIPERFSGSNSGNTATLTISRVEAGDEADYYCQVWDSSSDPYVFGTGTKVTVL
B2: EEEV-147 (antibody, V domains shown)
VH: QVQLVQSGAEVKKPGASVKVSCKASGYTFTNYGITWVRQAPGQGLEWMGWISAYNGNTDYAQKLQGRVTMTTDTSTSTAYMELGSLRSDDTAVYYCARELWFGDLGYWGQGTLVTVSS
VL: EIVLTQSPGTLSLSPGERATLSCRASQSVSRSSSSYLAWYQQKPGQAPRLLIYGASSRATGIPDRFSGSGSGTDFTLTISRLEPEDVAVYYCQQYGSSPQTFGQGTKLEIK
B3: EEEV-143 (antibody, V domains shown)
VH: QVQLVESGGGVVQPGRSLRLSCAASGFTFSNYGIHWVRQAPGKGLEWVAVISYDGRHKYIADPVKGRFTISRDNSKNMLYLQMNSLRTEDTAVYYCAKDTSGWYEFFDSWGQGIPVTVSS
VL: EIVMTQSPATLSVSPGERATLSCRASQSVATNVAWYQQKPGQAPRLLIYGASTRATGIPARFSGSGSGTEFTLTISSLQSEDFAVYYCQQCNDWLTFGQGTKVEIK

Columns and labels:
[1] = molecular target: Eastern equine encephalitis virus (EEEV) strain FL93-939 (Eastern equine encephalitis virus, strain FL93-939)
[2] = molecular target: Recombinant EEEV E2 glycoprotein (E3E2) (strain V105; IBT Bioservices) (Eastern equine encephalitis virus, strain V105); test: ELISA, mAb on coated recombinant E2
[3] = molecular target: Eastern equine encephalitis virus (EEEV) strain FL93-939 (Eastern equine encephalitis virus, strain FL93-939); remark: listed apart in the source
[4] = molecular target: Eastern equine encephalitis virus (EEEV) strain FL93-939 (Eastern equine encephalitis virus, strain FL93-939); remark: listed apart in the source

| Binder | IC50, neutralization, CPE assay [1] [µg/mL] | EC50 [2] | IC50, neutralization, PRNT [3] [nM] | IC50, neutralization, PRNT [4] [nM] |
| --- | --- | --- | --- | --- |
| B1 | < 0.01 | < 4 nM and < 1.2 µg/mL | < 0.037 | – |
| B2 | < 1 | – | – | – |
| B3 | – | – | – | 0.315 |
